Laboratory results reported in article PMC4909244, “Crystal structure of glutamate-1-semialdehyde-2,1-aminomutase from Arabidopsis thaliana” (Acta Crystallographica. Section F, Structural Biology …, 2016).

Molecular target: the molecule itself
Assay: SEC; size-exclusion chromatography, in solution; data not shown

B1: Glutamate-1-semialdehyde-2,1-aminomutase from Arabidopsis thaliana (AtGSA1) (enzyme)
chain: not shown
notes: The sense primer puts a TEV site (ENLYFQG) directly before VDEKKKS, so a Gly may remain at the N-terminus after cleavage (surmised from the primer); The protein retains the cofactors PMP/PLP; The first six N-terminal residues are not modelled in the structure; also called GSAM; glutamate-1-semialdehyde aminotransferase; source: E. coli BL21(DE3), purified (nickel-nitrilotriacetic acid column, TEV …)
- stoichiometry N: 2
